The data set deals with T1, ArgR (Thermotoga neapolitana) (UniProt Q9KWZ0).
T1 sequence: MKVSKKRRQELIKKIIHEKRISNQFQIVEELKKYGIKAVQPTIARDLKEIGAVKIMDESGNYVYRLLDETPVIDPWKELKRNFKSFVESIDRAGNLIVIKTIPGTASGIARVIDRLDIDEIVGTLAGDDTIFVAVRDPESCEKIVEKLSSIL
In words: EMSA. The conditions noted are these: 10 mM Tris-HCl pH 7.5, 250 mM KCl, 5 mM MgCl2, 2.5 mM CaCl2, 2.5% glycerol, 0.5 mM DTT, 100-fold sonicated herring sperm DNA, 37 C 30 min; 2% agarose in TAE …. (Mobility shift assays separate free from complexed probe on a gel.)

“TGTTACTCTTGAGTTACCAAAACAAAAACAAATGAATTTTTCTTCCAGAGGTGTTATATTTATGCTGTATAATTGTATGTGTTTTCAATCTGAAAGATGGAGGTGTTCAACTTGAAGGTGTCGAAAAAAAGAAGACAGGAACTCATAA (double strand) [argRo (ArgRTn)]”: the binding entry was “binds”.

The values above are taken from publication PMC9245472.
